The text below walks through data of patent US20210198375A1 (NANJING UMAB BIOPHARMA, published 2021).

Like-named read-outs stand apart in the source and are kept apart here.

In assay [1] the target is T1, Interferon receptors on Daudi cells (UniProt P17181).
T1 sequence (looked up) 1: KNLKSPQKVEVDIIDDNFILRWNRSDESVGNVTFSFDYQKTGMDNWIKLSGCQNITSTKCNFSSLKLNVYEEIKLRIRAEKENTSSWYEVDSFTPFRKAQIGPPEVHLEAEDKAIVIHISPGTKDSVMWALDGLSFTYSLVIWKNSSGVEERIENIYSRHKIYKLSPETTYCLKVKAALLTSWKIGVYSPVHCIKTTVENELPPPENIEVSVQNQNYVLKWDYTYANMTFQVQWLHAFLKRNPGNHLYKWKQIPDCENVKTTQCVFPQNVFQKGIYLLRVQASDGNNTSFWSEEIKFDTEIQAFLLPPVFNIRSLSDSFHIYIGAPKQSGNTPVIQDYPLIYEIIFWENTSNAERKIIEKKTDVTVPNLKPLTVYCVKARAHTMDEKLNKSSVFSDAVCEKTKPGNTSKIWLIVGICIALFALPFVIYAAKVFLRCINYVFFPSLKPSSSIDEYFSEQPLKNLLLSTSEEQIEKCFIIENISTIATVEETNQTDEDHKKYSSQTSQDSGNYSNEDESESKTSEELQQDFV
T1 sequence (looked up) 2: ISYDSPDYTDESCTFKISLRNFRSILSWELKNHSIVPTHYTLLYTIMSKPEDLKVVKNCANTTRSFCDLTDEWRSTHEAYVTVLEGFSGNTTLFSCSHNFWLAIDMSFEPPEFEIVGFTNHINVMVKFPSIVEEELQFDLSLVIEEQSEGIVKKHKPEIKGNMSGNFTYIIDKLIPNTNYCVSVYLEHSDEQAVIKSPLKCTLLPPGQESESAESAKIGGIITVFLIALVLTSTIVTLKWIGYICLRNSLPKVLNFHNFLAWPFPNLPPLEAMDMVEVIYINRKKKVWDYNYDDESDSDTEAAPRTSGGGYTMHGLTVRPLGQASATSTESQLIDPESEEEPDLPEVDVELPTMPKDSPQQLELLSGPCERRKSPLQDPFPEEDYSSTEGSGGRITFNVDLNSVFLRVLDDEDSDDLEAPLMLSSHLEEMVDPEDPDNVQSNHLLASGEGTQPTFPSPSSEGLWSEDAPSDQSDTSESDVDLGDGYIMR
Description: cell-based or functional assay.

The target of assay [2] is T2, human OX40 expressed on CHO cells (human, UniProt P43489 29-277).
T2 construct: whole, on cells; also called hsOX40; CHO-hOX40
T2 sequence (looked up): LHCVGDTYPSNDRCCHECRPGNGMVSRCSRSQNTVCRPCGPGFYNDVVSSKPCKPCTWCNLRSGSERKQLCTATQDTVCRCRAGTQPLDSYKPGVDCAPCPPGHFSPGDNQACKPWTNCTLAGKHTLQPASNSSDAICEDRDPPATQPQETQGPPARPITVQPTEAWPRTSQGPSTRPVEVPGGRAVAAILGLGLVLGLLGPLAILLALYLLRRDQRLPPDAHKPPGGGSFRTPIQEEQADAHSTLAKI
The assay can be described thus: FACS on CHO cells transfected with human OX40.

For assay [3], the target named is T3, OX40 on reporter cells (Jurkat-OX40-NFκB-luciferase; HEK293-OX40-NFκB-Luc) (UniProt P43489 29-277).
T3 sequence (looked up): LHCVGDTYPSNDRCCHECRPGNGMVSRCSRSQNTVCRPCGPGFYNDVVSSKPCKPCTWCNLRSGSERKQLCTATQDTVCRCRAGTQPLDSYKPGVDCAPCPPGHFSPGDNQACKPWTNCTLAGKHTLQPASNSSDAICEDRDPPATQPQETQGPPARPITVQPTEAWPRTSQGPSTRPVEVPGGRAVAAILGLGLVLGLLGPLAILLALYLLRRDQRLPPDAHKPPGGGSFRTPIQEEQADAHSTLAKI
The assay can be described thus: cell-based or functional assay.

In assay [4] the target is T3, OX40 on reporter cells …. Description: cell-based or functional assay. The source holds these as a separate data set.
For assay [5], the target named is T3, OX40 on reporter cells …. Description: cell-based or functional assay. This is another data set of the same source.
For assay [6], the target named is T4, human OX40 protein (human, UniProt P43489 29-216, limits assumed).
T4 construct: also called TNFRSF4; CD134
T4 sequence (looked up): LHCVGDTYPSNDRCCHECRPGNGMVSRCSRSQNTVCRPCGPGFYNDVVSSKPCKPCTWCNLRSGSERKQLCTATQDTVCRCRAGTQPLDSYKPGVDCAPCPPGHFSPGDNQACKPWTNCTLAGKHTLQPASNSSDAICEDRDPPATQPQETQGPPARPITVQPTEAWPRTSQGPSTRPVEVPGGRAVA
The assay can be described thus: ELISA, plate coated with human OX40 protein, goat-anti-human IgG HRP.
Description: The next day, the plate was first washed 3 times with 300 μL PBST (Tween 20: 0.5‰), then blocked with 5% BSA/PBS at 100 μL/well for 2 h, and shaken at room temperature, followed by washing 3 times with 300 μL PBST. Gradient dilutions of the fusion protein samples were prepared in PBS, and then added to the 96-well plate at 100 μL/well; the plate was shaken for 1 h at room temperature, followed by washing 3 times with 300 μL PBST. A secondary antibody goat-anti-human IgG HRP solution was prepared and added to the 96-well plate at 100 μL/well, and the plate was shaken for 1 h at room temperature, followed by washing 4 times with 300 μL PBST. TMB was added at 100 μL/well to develop color for 20 min. 0.6N H₂SO₄ was added at 100 μL/well to stop the color development, and the OD values were determined at 450 nm.

Assay [7] addresses T4, human OX40 protein. The assay can be described thus: ELISA, plate coated with human OX40 protein, mouse-anti-human IgG HRP. On the technique in general: ELISA stands for enzyme-linked immunosorbent assay.
Description: The next day, the plate was first washed 3 times with 300 μL PBST (Tween 20: 0.5‰), then blocked with 5% BSA/PBS at 100 μL/well for 2 h, and shaken at room temperature, followed by washing 3 times with 300 μL PB ST. Gradient dilutions of the fusion protein samples were prepared in PBS, and then added to the 96-well plate at 100 μL/well; the plate was shaken for 1 h at room temperature, followed by washing 3 times with 300 μL PBST. A mouse-anti-human IgG HRP (GenScript Biotech Corp., Art. No. A01854) solution was prepared and added into the 96-well plate at 100 μL/well, and the plate was shaken for 1 h at room temperature, followed by washing 4 times with 300 μL PBST. TMB was added at 100 μL/well to develop color for 20 min. 0.6N H₂SO₄ was added at 100 μL/well to stop the color development, and the OD (optical density) values were determined at 450 nm.

Usually EC50 stands for the midpoint of the concentration-response curve. Low values mean higher potency in that assay, high ones lower potency in that assay.

The molecule “pegylated interferon α2 (Pegberon, Xiamen Amoytop Biotech, Batch No. 201811JS19) (ligand)” displayed a proliferation inhibitory activity on Daudi cells, IC50 in assay [1] of 10600 nM.

B1: MT01-L1 (antibody, V domains shown)
VH: EVQLQQSGPELVKPGASVKMSCKASGYTFTSYVMHWLKQKPGQGLEWIGYINPYNDGTKYNEKFKGKAKLTSDKSSSTAYMELSSLTSEDSAVYYCANYYGSKFAMDYWGQGTSVTVSS
VL: DIQMTQTTSSLSASLGDRVTISCRASQDISNYLSWYQRKPDGAVKLLIYYTSRLHSGVPSRFSGSGSGADYSLTISNLEQEDIATYFCQQGITLPWTFGGGTKLEIKR
The molecule B1 gave a 50% effective concentration (EC50) in assay [2] of 660 ng/mL.

B2: MT01-C1 (antibody, human IgG1, V domains shown)
VH: EVQLVQSGAEVKKPGESLKISCKASGYTFTSYVMHWLRQMPGKGLEWMGYINPYNDGTKYNEKFKGQVTISSDKSISTAYLQWSSLKASDTAMYYCANYYGSKFAMDYWGQGTMVTVSS
VL: DIQMTQSPSSVSASVGDRVTITCRASQDISNYLSWYQQKPGGAVKLLIYYTSRLHSGVPSRFSGSGSGTDYTLTISSLQPEDFATYFCQQGITLPWTFGQGTKVEIK
notes: also called OX40 antibody MT01-C1; OX40 mAb MT01-C1
For the molecule B2, in assay [3], the “activate NFκB-luciferase reporter, EC50” value was determined as 0.0452 ng/mL. For the same molecule, the “Activation activity of OX40 signaling pathway EC50” value in assay [4] worked out at 0.325 nM; in assay [5], 0.178 nM. The same molecule yielded an EC50 with human OX40 protein [6] of 298 ng/mL.

B3: MT01-C1 as described in Example 11 (human IgG4 (S228P), κ) (antibody, V domains shown)
VH: EVQLVQSGAEVKKPGESLKISCKASGYTFTSYVMHWLRQMPGKGLEWMGYINPYNDGTKYNEKFKGQVTISSDKSISTAYLQWSSLKASDTAMYYCANYYGSKFAMDYWGQGTMVTVSS
VL: DIQMTQSPSSVSASVGDRVTITCRASQDISNYLSWYQQKPGGAVKLLIYYTSRLHSGVPSRFSGSGSGTDYTLTISSLQPEDFATYFCQQGITLPWTFGQGTKVEIK
notes: also called OX40 antibody MT01-C1; MT01-C1 mAb
In the case of B3, in the assay with human OX40 protein [7], the EC50 is 1.21 nM.
